Target: T148-ADP-ribosylated-actin (100% TccC3-ADP-ribosylated actin) (not stated (purified from rabbit or chicken skeletal muscle)), P68135
Conditions: remark: other sources report otherwise

- other: 15 fold
B1: Actin-depolymerizing factor, P60981 1-165 (natural protein)
chain: MASGVQVADEVCRIFYDMKVRKCSTPEEIKKRKKAVIFCLSADKKCIIVEEGKEILVGDVGVTITDPFKHFVGMLPEKDCRYALYDASFETKESRKEELMFFLWAPELAPLKSKMIYASSKDAIKKKFQGIKHECQANGPEDLNRACIAEKLGGSLIVAFEGCPV

From publication PMC9266650
